Data as given in publication PMC5794992.

Molecular target: BraA.Gα1 (Gα subunit of B. rapa), GAL4 DNA-binding domain fusion (Brassica rapa)
Sequence (P18064 other isoform, or with tags, fused parts or gaps): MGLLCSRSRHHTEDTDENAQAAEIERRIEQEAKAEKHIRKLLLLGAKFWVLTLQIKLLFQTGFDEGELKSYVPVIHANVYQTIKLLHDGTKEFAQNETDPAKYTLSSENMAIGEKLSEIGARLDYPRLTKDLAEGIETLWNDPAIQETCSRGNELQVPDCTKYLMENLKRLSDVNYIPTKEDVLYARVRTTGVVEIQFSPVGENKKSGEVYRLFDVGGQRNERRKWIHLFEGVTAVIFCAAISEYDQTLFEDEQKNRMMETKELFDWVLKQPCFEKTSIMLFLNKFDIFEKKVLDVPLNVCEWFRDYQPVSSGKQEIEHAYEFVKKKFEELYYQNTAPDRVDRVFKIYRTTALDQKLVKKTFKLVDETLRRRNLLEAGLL

Km of steady state Pi release (ENZchek) from 1 μM GTP-loaded BraA.Gα1 with 0.1–2.0 μM purified RGS-domain of BraA.RGS2 (His-tagged proteins from E. coli) | Km of steady state Pi release (ENZchek) from 1 μM GTP-loaded BraA.Gα1 with 0.1–2.0 μM purified RGS-domain of BraA.RGS1 (His-tagged proteins from E. coli) | Substance
0.311 |  | RGS-domain of BraA.RGS2 (C-terminal cytosolic domain containing the RGS-box), GAL4 activation domain fusion (domain or fragment)
 | 0.244 | RGS-domain of BraA.RGS1 (C-terminal cytosolic domain containing the RGS-box), GAL4 activation domain fusion (domain or fragment)
